Data on four molecules can be found in patent US9290794B2, “Mutant protease biosensors with enhanced detection characteristics” (PROMEGA CORPORATION, priority 2010, dated 2016).

The data set concerns caspase-3. The data set is described as follows: CBS variants transiently transfected in HEK293 cells, kinetic luminescence response to TRAIL treatment. Type of data set: cell-based. The settings on record: for RESPONSE, IMPROVEMENT OVER TL-CP358-DEVD:DD: ratio of INDUCED to BASAL; for BASAL, IMPROVEMENT OVER TL-CP358-DEVD:DD: time (0); for greater RESPONSE compared with TL-CP358-DEVD:DD: live cells (FIGS. 2, 3). An excerpt:
The Caspase-3 BioSensor (CBS) is a thermostable Photuris pennsylvanica luciferase (TL), circularly-permuted (CP) at amino acid 358, with a caspase-3 recognition site, i.e., one containing the caspase-3 recognition site comprising amino acids DEVD, at the junction between the TL fragments. The specific CBS that was used as the starting template is termed TL-CP358-DEVD:DD. The amino acid sequence of this CBS can be represented as: M/TL residues 358-544/SDEVDGSL/TL residues 4-354/V (SEQ ID NO:6). The amino acid positions in the CP TL correlate to those of the non-CP TL sequence (provided in the attached appendix). Upon treatment with caspase-3, CBS is cleaved at the recognition site allowing the two TL fragments to form a more favorable, higher activity, conformation.
The utility of CBS is the differential activity before and after cleavage by caspase-3. The basal activity of CBS is defined as the activity at assay time (O), before caspase-3 has had time to cleave at the recognition site. The induced activity is defined as the activity at some later time (t) after CBS has been cleaved by caspase-3. The response or fold increase in activity, is the ratio of induced to basal activity. Substitutions in TL-CP358-DEVD:DD were generated to develop CBS variants with enhanced responsivity to induction using the error-prone, mutagenic PCR-based system GeneMorph II (Stratagene; Daugherty, PNAS USA 97(5):2029 (2000)), according to manufacturer's instructions.
The resulting library was expressed in E. coli and screened for luciferase activity with and without pre-treatment with recombinant caspase-3 (data not shown). CBS variants having the best signal and response characteristics were then evaluated in HEK293 cells by kinetic assay measuring the response to TNF-α-related apoptosis inducing ligand (TRAIL) treatment (Wiley, S. R. et al., Immunity 3:673 (1995); Niles, A. L. et al., Meth. Mol. Biol. 414:137 (2008)). TRAIL induces apoptosis via activation of the death receptor to form active caspase-8, which in turn activates procaspase 3 to produce caspase-3. The appearance of active caspase-3 should be accompanied by an increase in luminescence as the CBS variants are cleaved and activated. Briefly, HEK293 cells, plated at 15,000 cells/well in a 96-well plate, were transiently transfected using TransIT-LTI (Mires Bio) with plasmid DNAs encoding various CBS variants with amino acid substitutions in TL-CP358-DEVD:DD. The same plasmids also carried a gene for constitutive expression of Renilla luciferase to act as a transfection control. Cells were pretreated with 2 mM luciferin for 2 hrs at 37° C. Cells were treated with 1 μg/mL TRAIL and assayed for 10 hrs at 37° C. Luminescence was monitored continuously over time (Luminometer: Varioskan Flash (Thermo) 1 sec integration time). Cells in replicate wells were lysed, at the time of TRAIL addition, i.e., time (0) and Renilla luciferase activity was measured. All biosensor data was then normalized for transfection efficiency using Renilla luciferase luminescence (Dual-GloAssay System; Promega Corporation).
Table 1 lists the variants of TL-CP358-DEVD:DD, identified by clone name, showing improved response to TRAIL treatment. Improvements listed in Table 1 are normalized to the parental TL-CP358-DEVD:DD CBS. “BASAL” represents the normalized biosensor luminescence at TRAIL addition, i.e., time (0), “INDUCED” represents the normalized biosensor luminescence at roughly 10 hrs after TRAIL addition, and “RESPONSE” represents the fold-induction, i.e., the ratio of INDUCED to BASAL activity.
Additional CBS variants were generated using the oligo-based site-directed mutagenesis kit Quik Change (Stratagene; Kunkel, PNAS USA 82(2):488 (1985)), according to the manufacturer's instructions. […]

Setting [1] is: Table 2 combination variants, roughly 10 hrs after TRAIL, HEK293.
Where [2] appears, read: Table 2 combination variants, HEK293 as in Example I.

Residue numbers refer to the chain shown, from its start.

B1: 01:A-05: CBS variant of TL-CP358-DEVD:DD, 507TI (SEQ ID NOs:7 and 8) (protein)
chain: MPGSTGKIVPLHAVKVVDPTTGKILGPNEPGELYFKGPMIMKGYYNNEEATKAIIDNDGWLRSGDIAYYDNDGHFYIVDRLKSLIKYKGYQVAPAEIEGILLQHPYIVDAGVTGIPDEAAGELPAAGVVVQTGKYLNEQIVQDYVASQVSIAKWLRGGVKFLDEIPKGSTGKIDRKVLRQMLEKHTNGSDEVDGSLKNILYGPEPFYPLEDGTAGEQMFDALSRYAAIPGCIALTNAHTKENVLYEEFLKLSCRLAESFKKYGLKQNDTIAVCSENSLQFFLPVIASLYLGIIVAPVNDKYIERELIHSLGIVKPRIVFCSKNTFQKVLNVKSKLKSIETIIILDLNEDLGGYQCLNNFISQNSDSNLDVKKFKPYSFNRDDQVASIMFSSGTTGLPKGVMLTHKNIVARFSIAKDPTFGNAINPTSAILTVIPFHHGFGMMTTLGYFTCGFRVVLMHTFEEKLFLQSLQDYKVESTLLVPTLMAFLAKSALVEKYDLSHLKEIASGGAPLSKEIGEMVKKRFKLNFVRQGYGLTETTSAVLITPKGV
Consider B1, for which the “RESPONSE, IMPROVEMENT OVER TL-CP358-DEVD:DD” value (Table 1, fold-induction, normalized to parental) is 3.6 fold. Besides, the “BASAL, IMPROVEMENT OVER TL-CP358-DEVD:DD” value (Table 1, normalized biosensor luminescence at TRAIL addition, HEK293, normalized to parental) is recorded as 0.2 fold. For the same molecule, the “INDUCED, IMPROVEMENT OVER TL-CP358-DEVD:DD” value (Table 1, normalized luminescence roughly 10 hrs after 1 μg/mL TRAIL, HEK293, normalized to parental) is given as 0.6 fold. Besides, the “greater RESPONSE compared with TL-CP358-DEVD:DD” value is recorded as 2 times (after 2 hrs TRAIL treatment) and “about 4.8 times” (after 10 hrs TRAIL treatment).

B2: FC7: 24: CBS variant, 193SP 471IT 503SG 507TI (SEQ ID NOs:9 and 10) (protein)
chain: B1 chain with I115T, S147G, S386P
Consider B2, for which, where the note is “Table 2 combination variants”, the “RESPONSE, IMPROVEMENT OVER TL-CP358-DEVD:DD” value was 5.480 fold. For the same molecule, under setting [1], the “INDUCED, IMPROVEMENT OVER TL-CP358-DEVD:DD” value turned out to be 0.191 fold. Moreover, the “BASAL, IMPROVEMENT OVER TL-CP358-DEVD:DD” value under setting [2] was 0.035 fold. Also, the “greater RESPONSE compared with TL-CP358-DEVD:DD” value (after 2 hrs TRAIL treatment) is “about 2 times”.

B3: FC7: 43: CBS variant, 471IT 503SG 507TI (SEQ ID NOs:11 and 12) (protein)
chain: B1 chain with I115T, S147G
With B3, the “RESPONSE, IMPROVEMENT OVER TL-CP358-DEVD:DD” value (Table 2 combination variants) is 6.735 fold. For the same molecule, the “INDUCED, IMPROVEMENT OVER TL-CP358-DEVD:DD” value under setting [1] stood at 0.189 fold. In addition, under setting [2], the “BASAL, IMPROVEMENT OVER TL-CP358-DEVD:DD” value is listed as 0.028 fold. Also, the “greater RESPONSE compared with TL-CP358-DEVD:DD” value (after 10 hrs TRAIL treatment) was “about 2.2 times”.

B4: FC7: 49: CBS variant, 193SP 503SG 507TI (SEQ ID NOs:13 and 14) (protein)
chain: B1 chain with S147G, S386P
For B4, the “RESPONSE, IMPROVEMENT OVER TL-CP358-DEVD:DD” value (Table 2 combination variants) was found to be 5.115 fold. For the same molecule, the “INDUCED, IMPROVEMENT OVER TL-CP358-DEVD:DD” value under setting [1] turned out to be 0.852 fold. In addition, under setting [2], the “BASAL, IMPROVEMENT OVER TL-CP358-DEVD:DD” value came to 0.167 fold. Also, the “greater RESPONSE compared with TL-CP358-DEVD:DD” value (after 2 hrs TRAIL treatment) is recorded as “about 2 times”.
